Data on 5 substances can be found in publication PMC6420462.

The target in the assay is T1, GluK5-WT (kainate receptor subunit GluK5) (UniProt Q16478).
T1 sequence: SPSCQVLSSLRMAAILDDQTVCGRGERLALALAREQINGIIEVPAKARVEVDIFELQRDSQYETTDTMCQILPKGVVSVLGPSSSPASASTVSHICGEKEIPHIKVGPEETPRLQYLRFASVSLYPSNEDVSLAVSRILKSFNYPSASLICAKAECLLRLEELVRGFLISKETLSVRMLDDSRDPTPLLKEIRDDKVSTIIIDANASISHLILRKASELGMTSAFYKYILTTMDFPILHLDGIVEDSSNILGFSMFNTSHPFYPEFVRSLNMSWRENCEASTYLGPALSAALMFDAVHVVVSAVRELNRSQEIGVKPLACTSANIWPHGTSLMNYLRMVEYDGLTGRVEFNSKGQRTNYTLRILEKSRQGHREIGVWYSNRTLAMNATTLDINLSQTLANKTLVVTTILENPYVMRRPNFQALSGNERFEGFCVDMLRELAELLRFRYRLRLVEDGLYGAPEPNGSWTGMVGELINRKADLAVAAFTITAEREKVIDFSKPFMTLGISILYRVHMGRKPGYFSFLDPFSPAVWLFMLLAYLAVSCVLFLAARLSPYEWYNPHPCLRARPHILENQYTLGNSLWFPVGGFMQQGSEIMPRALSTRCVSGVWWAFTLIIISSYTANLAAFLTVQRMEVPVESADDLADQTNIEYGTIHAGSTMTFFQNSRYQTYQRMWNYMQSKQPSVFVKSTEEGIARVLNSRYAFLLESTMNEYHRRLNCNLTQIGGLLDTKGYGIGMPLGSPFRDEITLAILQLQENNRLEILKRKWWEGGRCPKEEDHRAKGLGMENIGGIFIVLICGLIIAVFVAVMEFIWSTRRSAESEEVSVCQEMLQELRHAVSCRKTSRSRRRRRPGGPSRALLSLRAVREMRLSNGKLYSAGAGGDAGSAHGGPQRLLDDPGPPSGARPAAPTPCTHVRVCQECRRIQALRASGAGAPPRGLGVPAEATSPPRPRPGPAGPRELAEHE

In the case of “GluK2-T659V (from UniProt Q13002 32-908) (receptor)”, the cell surface (biotinylated) GluK2-T659V, % of total, on co-expression with GluK5-WT in HEK293 cells turned out to be 28%; the cell surface (biotinylated) GluK5, % of total, on co-expression with GluK2-T659V in HEK293 cells (GluK5 alone not detectable on the surface) is 26%; the increase in cell surface GluK2-T659V on co-expression with GluK5-WT against the homomeric subunit came to 7 fold.

In turn, “GluK2-A487L (from UniProt Q13002 32-908) (receptor)” registered a cell surface (biotinylated) GluK2-A487L, % of total, on co-expression with GluK5-WT in HEK293 cells of 14%; a cell surface (biotinylated) GluK5, % of total, on co-expression with GluK2-A487L in HEK293 cells (GluK5 alone not detectable on the surface) of 14%; an increase in cell surface GluK2-A487L on co-expression with GluK5-WT against the homomeric subunit of 5 fold.

Substance “GluK2-S689N/N690S (from UniProt Q13002 32-908) (receptor)” gave a cell surface (biotinylated) GluK2-S689N/N690S, % of total, on co-expression with GluK5-WT in HEK293 cells of 12% and a cell surface (biotinylated) GluK5, % of total, on co-expression with GluK2-S689N/N690S in HEK293 cells (GluK5 alone not detectable on the surface) of 10%.

“GluK2-A487T (from UniProt Q13002 32-908) (receptor)” returned a cell surface (biotinylated) GluK2-A487T, % of total, on co-expression with GluK5-WT in HEK293 cells of 18% and a cell surface (biotinylated) GluK5, % of total, on co-expression with GluK2-A487T in HEK293 cells (GluK5 alone not detectable on the surface) of 20%.

As for “GluK2-WT (human GluK2a(Q) kainate receptor subunit) (from UniProt Q13002 32-908)”, the cell surface (biotinylated) GluK2, % of total, on co-expression with GluK5-WT in HEK293 cells came to 28% and the cell surface (biotinylated) GluK5, % of total, on co-expression with GluK2-WT in HEK293 cells (GluK5 alone not detectable on the surface) was determined as 27%.
